Source: patent US20100173334A1

Tests used:
[1] = molecular target: haptoglobin β chain derived from cancer (serum or cells of cancer patients) (human) (UniProt P00738); assay: serum Western blot; urothelial cancer, superficial (n=18)
[2] = molecular target: haptoglobin β chain derived from cancer (serum or cells of cancer patients) (human) (UniProt P00738); assay: serum Western blot; the same 15 patients after radical prostatectomy
[3] = molecular target: haptoglobin β chain derived from cancer (serum or cells of cancer patients) (human) (UniProt P00738); assay: serum Western blot; urothelial cancer, muscle invasive or advanced (n=19)
[4] = molecular target: haptoglobin β chain derived from cancer (serum or cells of cancer patients) (human) (UniProt P00738); assay: serum Western blot; 15 prostate cancer patients before radical prostatectomy
[5] = molecular target: haptoglobin β chain derived from cancer (serum or cells of cancer patients) (human) (UniProt P00738); assay: serum Western blot, Scion image densitometry; mean of 62 patients with early prostate cancer
[6] = molecular target: haptoglobin β chain derived from benign disease (serum of patients with benign prostatic disease) (human) (UniProt P00738); assay: serum Western blot, Scion image densitometry; mean of 43 patients with benign prostatic disease
[7] = molecular target: haptoglobin β chain derived from cancer (serum or cells of cancer patients) (human) (UniProt P00738); assay: sandwich ELISA: RM2 captured on anti-mouse IgM plate, diluted serum, detection with rabbit anti-haptoglobin polyclonal; mean of 12 sera of prostate cancer
[8] = molecular target: haptoglobin β chain derived from benign disease (serum of patients with benign prostatic disease) (human) (UniProt P00738); assay: sandwich ELISA: RM2 captured on anti-mouse IgM plate, diluted serum, detection with rabbit anti-haptoglobin polyclonal; mean of 12 sera of benign prostatic disease

## monoclonal antibody RM2
[1]
  RM2 reaction (the value normalized to RM2 reaction to 75 kDa protein) (ratio of band density to the 75 kDa band): 0.31
[2]
  RM2 reaction level to GPX (normalized to 75 kDa band) (ratio of band density to the 75 kDa band): 0.6
[3]
  RM2 reaction (the value normalized to RM2 reaction to 75 kDa protein) (ratio of band density to the 75 kDa band): 0.96
[4]
  RM2 reaction level to GPX (normalized to 75 kDa band) (ratio of band density to the 75 kDa band): 0.92
[5]
  RM2 reaction level to GPX (normalized to 75 kDa band) (ratio of band density to the 75 kDa band): 0.96
[6]
  RM2 reaction level to GPX (normalized to 75 kDa band) (ratio of band density to the 75 kDa band): 0.35
[7]
  absorbance at 450 nm (absorbance at 450 nm): 1.1
[8]
  absorbance at 450 nm (absorbance at 450 nm): 0.58
